Assay [1] deals with MBP-tagged G2L4 RT dimer interface Thumb mutant (R397/R398/R404A). Put plainly: native gel or EMSA. (In general: A gel shift assay detects complexes by their altered migration in electrophoresis.)
Assay [2] addresses MBP-tagged G2L4 RT dimer interface NTE + Thumb mutant (R12/Y15/R398A). Put plainly: native gel or EMSA.
The target in assay [3] is MBP-tagged wild-type G2L4 RT. Put plainly: SEC. A general note: Size exclusion chromatography separates by hydrodynamic size, large species first.

“MBP-tagged G2L4 RT dimer interface Thumb mutant (R397/R398/R404A) (enzyme)” had a proportion of monomers in assay [1] of 25%.

Regarding “MBP-tagged G2L4 RT dimer interface NTE + Thumb mutant (R12/Y15/R398A) (enzyme)”, in assay [2], the proportion of monomers was determined as 36%. In the case of MBP-tagged wild-type G2L4 RT (enzyme), in assay [3], the stoichiometry N (usually a count of units in the complex or per binding partner) is 2.

For the origin of these results see article PMC11761039.
